Test results as given in article doi:10.1101/2025.05.08.652848 (bioRxiv, 2025).
*: point of attachment. Biotin = O=C1N[C@H]2[C@H](CS[C@H]2CCCCC(=O)*)N1

B1: biotinylated NCOR1 ID2 peptide (peptide)
peptide: Biotin-GHSFADPASNLGLEDIIRKALMG-NH2
SMILES: CC[C@H](C)[C@H](NC(=O)[C@H](CC(=O)O)NC(=O)[C@H](CCC(=O)O)NC(=O)[C@H](CC(C)C)NC(=O)CNC(=O)[C@H](CC(C)C)NC(=O)[C@H](CC(N)=O)NC(=O)[C@H](CO)NC(=O)[C@H](C)NC(=O)[C@@H]1CCCN1C(=O)[C@H](CC(=O)O)NC(=O)[C@H](C)NC(=O)[C@H](Cc1ccccc1)NC(=O)[C@H](CO)NC(=O)[C@H](Cc1c[nH]cn1)NC(=O)CNC(=O)CCCC[C@@H]1SC[C@@H]2NC(=O)N[C@@H]21)C(=O)N[C@H](C(=O)N[C@@H](CCCNC(=N)N)C(=O)N[C@@H](CCCCN)C(=O)N[C@@H](C)C(=O)N[C@@H](CC(C)C)C(=O)N[C@@H](CCSC)C(=O)NCC(N)=O)[C@@H](C)CC
B2: biotinylated MED1 LxxLL peptide (peptide)
peptide: Biotin-VSSMAGNTKNHPMLMNLLKDNPAQ-NH2
SMILES: CSCC[C@H](NC(=O)[C@H](CO)NC(=O)[C@H](CO)NC(=O)[C@@H](NC(=O)CCCC[C@@H]1SC[C@@H]2NC(=O)N[C@@H]21)C(C)C)C(=O)N[C@@H](C)C(=O)NCC(=O)N[C@@H](CC(N)=O)C(=O)N[C@H](C(=O)N[C@@H](CCCCN)C(=O)N[C@@H](CC(N)=O)C(=O)N[C@@H](Cc1c[nH]cn1)C(=O)N1CCC[C@H]1C(=O)N[C@@H](CCSC)C(=O)N[C@@H](CC(C)C)C(=O)N[C@@H](CCSC)C(=O)N[C@@H](CC(N)=O)C(=O)N[C@@H](CC(C)C)C(=O)N[C@@H](CC(C)C)C(=O)N[C@@H](CCCCN)C(=O)N[C@@H](CC(=O)O)C(=O)N[C@@H](CC(N)=O)C(=O)N1CCC[C@H]1C(=O)N[C@@H](C)C(=O)N[C@@H](CCC(N)=O)C(N)=O)[C@@H](C)O

Assays:
[1] = target: His-PPARG LBD (human PPARG ligand-binding domain, residues 231 to 505), wild type (human) (UniProt P37231); assay: AlphaScreen or HTRF
[2] = target: T1, RXRA^WT:PPARG LBD heterodimer (human, UniProt P37231;P19793); assay: AlphaScreen or HTRF
T1 sequence 1: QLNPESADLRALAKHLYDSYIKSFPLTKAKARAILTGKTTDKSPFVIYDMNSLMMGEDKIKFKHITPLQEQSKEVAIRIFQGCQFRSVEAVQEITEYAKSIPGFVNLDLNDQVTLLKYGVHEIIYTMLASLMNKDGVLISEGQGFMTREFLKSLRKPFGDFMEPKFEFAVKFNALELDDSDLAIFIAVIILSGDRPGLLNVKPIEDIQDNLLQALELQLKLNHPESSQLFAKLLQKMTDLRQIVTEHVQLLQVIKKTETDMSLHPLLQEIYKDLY
T1 sequence 2: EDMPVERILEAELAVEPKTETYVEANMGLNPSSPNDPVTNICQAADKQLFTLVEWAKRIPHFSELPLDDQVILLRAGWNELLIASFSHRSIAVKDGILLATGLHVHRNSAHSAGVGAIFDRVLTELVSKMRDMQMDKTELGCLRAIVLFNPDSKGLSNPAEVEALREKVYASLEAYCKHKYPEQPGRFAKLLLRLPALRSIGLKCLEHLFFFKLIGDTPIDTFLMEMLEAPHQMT

[3] = target: N-terminal Avi-tagged PPARG LBD, FTX-6746-modified (human); assay: SPR
[4] = target: N-terminal Avi-tagged PPARG LBD, unmodified (DMSO) (human); assay: SPR

Row | Molecule | Kd [1] [nM] | binding result [2] | fraction of PPARG capable of binding CoA [3] [%] | fraction of PPARG capable of binding CoA [4] [%] | Kd [2] [nM]
1 | biotinylated MED1 LxxLL peptide | > 2500 |  |  |  | 
2 | B1 |  | binds |  |  | 
3 | B2 |  | binds | 34 | 82 | 270
